Data as given in publication doi:10.1101/293811 (bioRxiv, 2018).

Biological target: alanine or glycine:cation symporter (AgcS) from Methanococcus maripaludis (Methanococcus maripaludis, UniProt Q6LX42)
Test: crystal structure

alanine or glycine:cation symporter (AgcS) from Methanococcus maripaludis, sequence (Q6LX42 whole entry): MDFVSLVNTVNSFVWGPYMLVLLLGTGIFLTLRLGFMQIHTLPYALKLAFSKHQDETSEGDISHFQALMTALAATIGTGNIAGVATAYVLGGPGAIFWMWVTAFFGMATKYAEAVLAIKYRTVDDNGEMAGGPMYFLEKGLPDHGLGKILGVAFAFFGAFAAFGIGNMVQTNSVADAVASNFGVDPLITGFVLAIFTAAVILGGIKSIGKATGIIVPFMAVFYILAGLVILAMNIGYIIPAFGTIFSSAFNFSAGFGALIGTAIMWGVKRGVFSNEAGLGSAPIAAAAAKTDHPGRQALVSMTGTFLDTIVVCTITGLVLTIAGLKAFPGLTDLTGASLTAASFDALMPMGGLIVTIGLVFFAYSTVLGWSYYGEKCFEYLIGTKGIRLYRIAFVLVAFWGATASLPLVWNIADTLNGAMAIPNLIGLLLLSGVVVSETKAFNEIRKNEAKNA

B1: 7B4 Fab fragment (Fab, V domains shown)
VH: EVKLEESGGGLVQPGGSMKLSCAASGFTSSDFAMDWVRQSPEAGLEWVAEIAASERHYAESVKGRFTISRDDSKSSVYLQMNSLRAEDSGLYYCTRTAGACGQWGTGTTVTVSS
VL: DIAMTQSPASLSASVGETVTITCRTSENIASALAWYQQKQGKSPQLLVMNAKTLAAGVPSRFSGSGSGTAFSLKINSLQPEDFGSYSCQHAAGWLLTFGGGTKLEIK
  binding result: binds
